Reference: US20240148916A1, “BIVALENT FIBROBLAST ACTIVATION PROTEIN LIGANDS FOR TARGETED DELIVERY APPLICATIONS” (priority 2021, published 2024)
*1 amine or outer side, *2 acyl side, *3 side chain or, on linkers, in order; H or OH if unused. Where a SMILES comes first, the peptide text is derived from it. The star is where a group is joined. Fluorescein(5-Mal) = O=C1OC2(c3ccc(O)cc3Oc3cc(O)ccc32)c2ccc(N3C(=O)CC(*)C3=O)cc21; X1 = N#C[C@@H]1CC(F)(F)CN1C(=O)CNC(=O)c1ccnc2c(N*)cccc12; Suc = O=C(CCC(=O)[*:2])[*:1]

Columns and labels:
in vivo = test: in vivo; set-up: species or system mice; conditions: mouse; for tissue to tissue ratio at 1 h / tissue to tissue ratio at 4 h / tissue to tissue ratio at 17 h / tissue to tissue ratio at 24 h: female, athymic BALB/C nu/nu, iv, 250 nmol/kg, total radioactivity
Protocol: Upon thawing, HT-1080.hFAP positive cells and HT-1080.wt cells were kept in culture in DMEM medium supplemented with fetal bovine serum (10%, FBS) and Antibiotic-Antimycotic (1%, AA) at 37° C. and 5% CO2. For passaging, cells were detached using Trypsin-EDTA 0.05% when reaching 90% confluence and re-seeded at a dilution of 1:4. Cells were grown to 80% confluence and detached with Trypsin-EDTA 0.05%. Cells were re-suspended in cold HBSS medium to a final concentration of 5×10^7 cells/mL. Aliquots of 5×10^6 cells (100 μL of suspension) were injected subcutaneously in the flank of female athymic BALB/C nu/nu mice (6-8 weeks of age). HT-1080.hFAP tumour cells were xenografted in the right flank and HT-1080.wt tumour cells were xenografted in the left flank as described above and allowed to grow to an average volume of 1.2±0.2 mL. […] Mice were sacrificed 1 h, 4 h, 17 h and 24 h after the injection by CO2 asphyxiation and organs extracted, weighted and radioactivity measured with a Packard Cobra γ-counter. Values are expressed as % ID/g±SD (Figure C). Food and water were given ad libitum during that period.

hFAP [1] = target: T1, hFAP (Homo sapiens, UniProt Q12884); test: Gel filtration co-elution experiment on hFAP; format: binding; conditions: PD-10 column, hFAP 2 μM
T1 sequence (Q12884 1-760): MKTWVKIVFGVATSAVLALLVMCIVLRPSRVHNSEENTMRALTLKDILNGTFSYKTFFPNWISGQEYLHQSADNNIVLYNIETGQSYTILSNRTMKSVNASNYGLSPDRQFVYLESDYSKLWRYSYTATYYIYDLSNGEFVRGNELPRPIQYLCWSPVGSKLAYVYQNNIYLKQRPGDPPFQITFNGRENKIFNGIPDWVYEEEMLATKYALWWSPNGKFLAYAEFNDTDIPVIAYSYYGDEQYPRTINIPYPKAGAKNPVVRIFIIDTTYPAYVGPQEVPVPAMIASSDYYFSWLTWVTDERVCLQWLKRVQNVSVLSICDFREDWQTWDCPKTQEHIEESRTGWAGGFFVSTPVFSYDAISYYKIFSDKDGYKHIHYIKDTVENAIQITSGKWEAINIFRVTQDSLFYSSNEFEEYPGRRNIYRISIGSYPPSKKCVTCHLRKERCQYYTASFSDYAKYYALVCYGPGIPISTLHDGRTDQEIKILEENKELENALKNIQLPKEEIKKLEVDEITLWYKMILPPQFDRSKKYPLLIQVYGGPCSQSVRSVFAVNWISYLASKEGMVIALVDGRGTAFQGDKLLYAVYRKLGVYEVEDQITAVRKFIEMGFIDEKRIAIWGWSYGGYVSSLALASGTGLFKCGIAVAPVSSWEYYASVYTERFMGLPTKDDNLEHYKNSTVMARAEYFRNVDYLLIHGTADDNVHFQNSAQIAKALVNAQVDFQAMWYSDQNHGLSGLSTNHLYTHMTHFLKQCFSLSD
Protocol: The final solution was loaded on the column and flushed with running buffer. Fractions of the flow-through (200 μL) were collected in test tubes and the radioactivity measured with a Packard Cobra γ-counter. […] The final solution was loaded on the column and flushed with running buffer. Fractions of the flow-through (200 μL) were collected in test tubes and the radioactivity measured with a Packard Cobra γ-counter.

hFAP [2] = target: T1, hFAP; test: ELISA against immobilized hFAP; format: binding; conditions: biotinylated hFAP immobilized on StreptaWell
Protocol: Recombinant human FAP (1 μM, 5 mL) was biotinylated with Biotin-LC-NHS (100 eq.) by incubation at room temperature under gentle agitation in 50 mM HEPES, 100 mM NaCl buffer (pH=7.4). After 2 hours biotinylated hFAP was purified via PD-10 column and dialyzed overnight in HEPES buffer. The following day a StreptaWell™ (transparent 96-well) was incubated with biotinylated hFAP (100 nM, 100 μL/well) for 1 hour at room temperature and washed with PBS (3×, 200 μL/well). The protein was blocked by adding 4% Milk in PBS (200 μL/well, 30 min at RT) and then washed with PBS (3×, 200 μL/well). Immobilized hFAP was incubated for 30 minutes in the dark with serial dilutions of ESV6-Asp-Lys-Asp-Cys-Fluorescein and Bi-ESV6-Asp-Lys-Asp-Cys-Fluorescein (17), then washed with PBS (3×, 200 μL/well). A solution of rabbit αFITC antibody (1 μg/mL, Bio-Rad 4510-7804) in 2% Milk-PBS was added to each well (100 μL/well) and incubated for additional 30 minutes in the dark. The resulting complex was washed with PBS (3×, 200 μL/well) and incubated for additional 30 minutes of protein A-HRP (1 μg/mL in 2% Milk-PBS, 100 μL/well). Each well was washed with PBS 0.1% Tween (3×, 200 μL/well) and with PBS (3×, 200 μL/well). The substrate (TMB—3,3′,5,5′-Tetramethylbenzidine) was added (100 μL/well) and developed in the dark for 2 minutes. […] The absorbance was measured at 450 nm (ref 620-650 nm) with a TECAN spark

[3] = Tumour-to-organ ratios: HT-1080.hFAP
[4] = Tumour-to-organ ratios: Intestine

Row | Compound | tissue to tissue ratio at 1 h (in vivo; Tumour-to-organ ratios: Blood) | tissue to tissue ratio at 4 h (in vivo; Tumour-to-organ ratios: Blood) | tissue to tissue ratio at 17 h (in vivo; Tumour-to-organ ratios: Blood) | tissue to tissue ratio at 24 h (in vivo; Tumour-to-organ ratios: Blood) | tissue to tissue ratio at 1 h (in vivo; [3]) | tissue to tissue ratio at 4 h (in vivo; [3]) | tissue to tissue ratio at 17 h (in vivo; [3]) | tissue to tissue ratio at 24 h (in vivo; [3]) | tissue to tissue ratio at 1 h (in vivo; Tumour-to-organ ratios: Heart) | tissue to tissue ratio at 4 h (in vivo; Tumour-to-organ ratios: Heart) | tissue to tissue ratio at 17 h (in vivo; Tumour-to-organ ratios: Heart) | tissue to tissue ratio at 24 h (in vivo; Tumour-to-organ ratios: Heart) | tissue to tissue ratio at 1 h (in vivo; [4]) | tissue to tissue ratio at 4 h (in vivo; [4]) | tissue to tissue ratio at 17 h (in vivo; [4]) | tissue to tissue ratio at 24 h (in vivo; [4]) | tissue to tissue ratio at 1 h (in vivo; Tumour-to-organ ratios: Kidney) | tissue to tissue ratio at 4 h (in vivo; Tumour-to-organ ratios: Kidney) | tissue to tissue ratio at 17 h (in vivo; Tumour-to-organ ratios: Kidney) | tissue to tissue ratio at 24 h (in vivo; Tumour-to-organ ratios: Kidney) | also measured
1 | N#C[C@@H]1CC(F)(F)CN1C(=O)CNC(=O)c1ccnc2c(NC(=O)CCC(=O)NCCNC(=O)CCC(C(=O)O)N3CCN(CC(=O)O)CCN(CC(=O)O)CCN(CC(=O)O)CC3)cccc12 (single isomer, unassigned) [^177Lu-ESV6-DOTAGA, metal not drawn] | 43.1 ± 17.2 | 113 ± 49.8 | 236 ± 190 | 855 ± 368 | 34.9 ± 2.79 | 26.8 ± 6.42 | 32.6 ± 17.4 | 13.3 ± 5.95 | 135 ± 19.8 | 208 ± 113 | 354 ± 231 | 169 ± 172 | 41 ± 41.8 | 39.8 ± 11.4 | 163 ± 94.9 | 77 ± 58.6 | 9.16 ± 0.88 | 8.25 ± 1.45 | 5.72 ± 2.04 | 11.9 ± 16 | tissue to tissue ratio at 1 h (in vivo; Tumour-to-organ ratios: Liver): 5.89 ± 0.82; tissue to tissue ratio at 4 h (in vivo; Tumour-to-organ ratios: Liver): 21.6 ± 2.99; tissue to tissue ratio at 17 h (in vivo; Tumour-to-organ ratios: Liver): 40.3 ± 13.3; tissue to tissue ratio at 24 h (in vivo; Tumour-to-organ ratios: Liver): 30.4 ± 6.7; tissue to tissue ratio at 1 h (in vivo; Tumour-to-organ ratios: Lung): 37.9 ± 2.59; tissue to tissue ratio at 4 h (in vivo; Tumour-to-organ ratios: Lung): 90.3 ± 29.3; tissue to tissue ratio at 17 h (in vivo; Tumour-to-organ ratios: Lung): 150 ± 88.5; tissue to tissue ratio at 24 h (in vivo; Tumour-to-organ ratios: Lung): 140 ± 83; tissue to tissue ratio at 1 h (in vivo; Tumour-to-organ ratios: Spleen): 109 ± 8.98; tissue to tissue ratio at 4 h (in vivo; Tumour-to-organ ratios: Spleen): 169 ± 67.8; tissue to tissue ratio at 17 h (in vivo; Tumour-to-organ ratios: Spleen): 200 ± 45.7; tissue to tissue ratio at 24 h (in vivo; Tumour-to-organ ratios: Spleen): 103 ± 66.7; tissue to tissue ratio at 1 h (in vivo; Tumour-to-organ ratios: Tail): 31.2 ± 8.39; tissue to tissue ratio at 4 h (in vivo; Tumour-to-organ ratios: Tail): 10.4 ± 7.6; tissue to tissue ratio at 17 h (in vivo; Tumour-to-organ ratios: Tail): 4.74 ± 5.11; tissue to tissue ratio at 24 h (in vivo; Tumour-to-organ ratios: Tail): 8.77 ± 2.3; Complex formation with hFAP (co-elution) (hFAP [1]): form a stable complex
2 | N#C[C@@H]1CC(F)(F)CN1C(=O)CNC(=O)c1ccnc2c(NC(=O)CCC(=O)N[C@@H](CC(=O)O)C(=O)N[C@@H](CCCCN)C(=O)N[C@@H](CC(=O)O)C(=O)N[C@@H](CSC3CC(=O)N(c4ccc5c(c4)C(=O)OC54c5ccc(O)cc5Oc5cc(O)ccc54)C3=O)C(=O)O)cccc12 (stereo partly drawn) [ESV6-Asp-Lys-Asp-Cys-Fluorescein] ({X1-Suc}-DKDC(Fluorescein(5-Mal))-OH) | – | – | – | – | – | – | – | – | – | – | – | – | – | – | – | – | – | – | – | – | Kd (hFAP [2]): 0.0323 µM
3 | N#C[C@@H]1CC(F)(F)CN1C(=O)CNC(=O)c1ccnc2c(NC(=O)CCC(=O)NCCCC[C@H](NC(=O)CCC(=O)Nc3cccc4c(C(=O)NCC(=O)N5CC(F)(F)C[C@H]5C#N)ccnc34)C(=O)NCCNC(=O)CCC(C(=O)O)N3CCN(CC(=O)O)CCN(CC(=O)O)CCN(CC(=O)O)CC3)cccc12 (stereo partly shown) [^177Lu-Bi-ESV6-DOTAGA, metal not drawn] | 32.8 ± 8.97 | 62.8 ± 11.2 | 95.4 ± 19.1 | 178 ± 57.6 | 23 ± 8.09 | 25 ± 1.27 | 27.2 ± 11.3 | 29.7 ± 13.8 | 52.2 ± 10.8 | 125 ± 17.1 | 148 ± 12.9 | 201 ± 59.5 | 59.6 ± 6.48 | 82.4 ± 31.2 | 111 ± 32.1 | 104 ± 60.6 | 7.19 ± 2.29 | 8.61 ± 0.84 | 8.4 ± 1.31 | 9.9 ± 2.38 | tissue to tissue ratio at 1 h (in vivo; Tumour-to-organ ratios: Liver): 18.8 ± 5.31; tissue to tissue ratio at 4 h (in vivo; Tumour-to-organ ratios: Liver): 29.9 ± 4.12; tissue to tissue ratio at 17 h (in vivo; Tumour-to-organ ratios: Liver): 27.9 ± 2.25; tissue to tissue ratio at 24 h (in vivo; Tumour-to-organ ratios: Liver): 30.6 ± 8; tissue to tissue ratio at 1 h (in vivo; Tumour-to-organ ratios: Lung): 19.5 ± 4.09; tissue to tissue ratio at 4 h (in vivo; Tumour-to-organ ratios: Lung): 65.5 ± 10.5; tissue to tissue ratio at 17 h (in vivo; Tumour-to-organ ratios: Lung): 124 ± 74.7; tissue to tissue ratio at 24 h (in vivo; Tumour-to-organ ratios: Lung): 98.7 ± 18.9; tissue to tissue ratio at 1 h (in vivo; Tumour-to-organ ratios: Spleen): 42.1 ± 17.7; tissue to tissue ratio at 4 h (in vivo; Tumour-to-organ ratios: Spleen): 73.8 ± 10.3; tissue to tissue ratio at 17 h (in vivo; Tumour-to-organ ratios: Spleen): 68.2 ± 11.7; tissue to tissue ratio at 24 h (in vivo; Tumour-to-organ ratios: Spleen): 93.6 ± 64.5; tissue to tissue ratio at 1 h (in vivo; Tumour-to-organ ratios: Tail): 10.4 ± 1.72; tissue to tissue ratio at 4 h (in vivo; Tumour-to-organ ratios: Tail): 9.68 ± 4.14; tissue to tissue ratio at 17 h (in vivo; Tumour-to-organ ratios: Tail): 14 ± 8.08; tissue to tissue ratio at 24 h (in vivo; Tumour-to-organ ratios: Tail): 15.5 ± 7.98; Kidney uptake (in vivo): transient and becomes negligible 24 hours after injection; Complex formation with hFAP (co-elution) (hFAP [1]): form a stable complex
